Reference: the DeepSol protein solubility set

test: soluble on expression in E. coli; label from the status in PepcDB or PDB records

Row | Sequence | soluble on expression in E. coli
1 | MKHHHHHPMVPSYDSFDSEDYPAALPNHKPKGTFKDYVRDRADLNKDKPVIPAAALAGYTGSGPIQLWQFLLELLTDKSSQSFISWTGDGWEFKLSDPDEVARRWGKRKNKPKMNYEKLSRGLRYYYDKNIIHKTAGKRYVYRFVSDLQSLLGYTPEELHAMLDVKPDADE | soluble
2 | MSLALAVQNTDTIGVVVTDVTDAFFAILVKAVDKVAEAHQKTILIGIGYHHAEKEREAINTLLRKRCSSLVVHSKALSDDELSHYLNTVQGMVIINRVIKGYEHRCVSLDNQKGTYLATEMLIRYGHQHIAYIGSNHAIFDEVERRNGYLAALKDHNYLIIEQAITLNSPDFEGGEKAMIDLLSYNKNLTAVVAYNDSMAAGAISVLNENNISVPSQFSIIGFDDMPIARYLIPKLTTIRYPIDLMATYAAKLALSLTDEKIITPPVVQFNPTLVRRFSVESREGHHHHHH | soluble
3 | MGSDKIHHHHHHMLSTGLYEDFPTLKMKINGKRIVYLDSAATTLKPKQVVKKLEEFYYNSYANVHRAVHTLAVRATTEFEETREEFAEFLGASPEEIIFTSGTTMAINLAVVSLLRSGILKEDDLVLVSLLEHHANFVPWLRLSKFHGYRIDFIRPSGRFGTLEMDDLLKHRDKNPKVVAITGLSNVTGQRIPVEELRNVFPNSIILLDGAQLIPHEPVKPKEIGVDFLAFSLHKMLGPTGVGVLYGKREVLEQMEPFLYGGEMIDRVSLEDVTFNELPYKFEAGTPNIADIVASREALRYLKETGFDSVHEKIEQLTQMALKEMMKIGGVEIYGPLDERQHGIVSFNVKGIHPHDVAHILDQEFGIAVRSGHHCAQPLMSILKEQSQIDFPNSTCRASFYIYNTEEDVKILVEGVKKVKEWFSR | not soluble
4 | DITGIPSGFNDLDQKTSGFQPGDLIIVAGRPSMGKTAFALNIGEHVALETSKPVAVFSMEMGGVQLAMRMLGSIGRLDQHKMRTGQLNDDDWPRLTHALGKLNDAPIFIDESAGLNSLELRARARRLYRQHEGLGLIIIDYLQLMSATSPGSENRAAEISEISRSLKALAKELQVPVIALSQLNRGLEQRPNKRPIMSDL | not soluble
5 | MSLSIPTIKQVRAFVLRGGGADYHDQGDGHWIDDHISTPMGKYPEYRQSRRSFGINVLGTLVVEIEASDGNVGFAVTTGGEPAAYIVEKHLARFLEGARVTDIERIWDQMYNSTLYYGRKGLVINTISGVDLALWDLLGKVRREPVHQLLGGAVRDELQFYATGARPDLAQKMGFIGGKMPLHHGPSEGEEGLKKNLEELATMRERVGPDFWLMFDCWMSLDLNYATRLARGAREYGLKWIEEALPPDDYWGYAELRRNAPTGMMVTTGEHEATRWGFRMLLEMGCCDIIQPDVGWCGGVTELLKISALADAHNALVVPHGSSVYSYHFVATRQNSPFAEFLMMAPKADQVVPMFHPQLLGEPVPENGRMRLSRLDQPGFGVTLNPECQLHRPYTHEGHHHHHH | soluble
6 | SLQAINPNWNVPKNIHAFTTTREGGVSLAPYLSFNLGDHVGDNKSAVKTNRTLLVEKFGLPQTPIFLTQTHSTRVIQLPYSGQNLEADAVYTNVPNQVCVVMTADCLPVLFTTTSGNEVAATHAGWRGLCDGVLEETVKYFQAKPEDIIAWFGPAIGPKAFQVGIDVVEKFVVVDEKAKLAFQPDAIEEGKYLSNLYQIATQRLNNLGITQIYGGNHCTFNEKEKFFSYRRDNQTGRMASVIWFE | soluble
7 | MKHFRKELWFETRQRRQFINITPTVRECLRESGIREGLLLCNAMHITASVFINDDESGLHHDFEVWLEGLAPEKPYDRYRHNGYEDNADAHLKRTVMGREVVVAVTAGELDLGPWEQIFYGEFDGKRRKRVLIKIIGELEHHHHHH | not soluble
8 | MPNHQPVKKFKIIGGACKGLGLNLPNISSTRPTKAIVRESFFNTLQAEINGAHFIEVFSGSASMGLEALSRGAKSAVFFEQNKSAYKTLLENISLFKNRLKKEMEIQTFLDDAFKLLPTLCLKNGVLNIIYLDPPFETSGFLGIYEKCFQALERLLKRFNPKNLLVVFEHESMHEMPKSLVTLAIIKQKKFGKTTLTYFQLEHHHHHH | soluble
9 | MKTFESLFAELSEKAQTRPEGSLTVDELDKGTHFIGKKIIEEAGETWMAAEYEGADRTAEEMSQLLYHVQVMMIKHGLTLEDVYKHL | soluble
10 | MNADAPLKSYSGHHSETHKSESKKKKDKKTFEEEDDVENVKRKPAESSDDEVVVVVVKKDQKGKRGKKSKKPKKKQESSDDSSDNSDSSESSDDDKKSKKKKKKSKKDSSDSSDSSDSSDSSDDGKKKKKKKSKKDSSDDSSDSSDSSDSSDSSDDDKKKKKKSKKSKNKGSSSDSSDSSDDSSDDEKPKKKKKKSKKPKKAPKSDEEVTIKIIKKPKKKPEDLERRRHRVKKTEEHEEEKDKEEHHESNDENMEFDTRARGAPSSPKLTRRAKRSESSDDEVELQKTPEIDDNKPSRKDGDHDSDMEESEKSKKSSKKDHNHHHHHCCCGAQNEHEHTHHEEFSKTDKVVNKYHDCAKCQYKCPICT | not soluble
11 | MAHHHHHHMTQSVSIGADHRLEATTSDCVSSVCFSPKECPMLMTGVASWDGSCSIWQVARNPAGAVISQPAWTTTHDSPLLTMSFSADGRVFFGGCSKTAVMWDLNSNQKAVVASHDLPISCLDFLTLPQTMSQMLITGSWDGKLRWWDLRQQSYVREENLGEPVFALDAQKTVPMMAAATGRLAHVYDVQQMQKVNELKLPDVMKFNLRCITCAPQYDGVGVGSSEGRVSFISMKDAPGCTFKAHITTEKSHYILSQTNFCVHHPTLPLLLSGGGDGNLTVINRADRKVIKTLQCEQKVGTQAIPISAGDISADGSLVAYAHSYDWAMGKSGYRNQPTSVHIRPLS | not soluble
12 | MGSDKIHHHHHHMGGAALPDNGWPADRIDTESAHSARIYDYIIGGKDYYPADKEAGDAMSREWPALPVHMRANRDWMNRAVAHLAKEAGIRQFLDIGTGIPTSPNLHEIAQSVAPESRVVYVDNDPIVLTLSQGLLASTPEGRTAYVEADMLDPASILDAPELRDTLDLTRPVALTVIAIVHFVLDEDDAVGIVRRLLEPLPSGSYLAMSIGTAEFAPQEVGRVAREYAARNMPMRLRTHAEAEEFFEGLELVEPGIVQVHKWHPDAATADGIRDEDIAMYGAVARKP | not soluble
13 | MVKRRNLLHFNNGARSERDLGDLVTKVFEKAAKKEPQPLYTFSLPLLSVQDEIRVYCKKKNIKIGYDTLFMEITFSADREAVDELIKHFFTENKLYLRGRFYLSAAVV | not soluble
14 | MAEVTGVRALTGAALDAALEDVARLRIAVFRAWPYLYDGDLDYERDYLQAYRNSDRAIVVGAFDGDRLIGASTGMPLADHADDFAAAFADSGLALDQVFYCAESVLLPDYRGHGVGHRFFDLREGHARALGFAKC | not soluble
15 | MDALEGESFALSFSSASDAEFDAVVGYLEDIIMDDEFQLLQRNFMDKYYLEFEDTEENKLIYTPIFNEYISLVEKYIEEQLLQRIPEFNMAAFTTTLQHHKDEVAGDIFDMLLTFTDFLAFKEMFLDYRAEKEGRGLDLSSGLVVTSLCKSSSLPASQNNLRHGHHHHHH | not soluble
16 | VQAVAVLKGDAGVSGVVKFEQASESEPTTVSYEIAGNSPNAERGFHICEFGDATNGCVSAGPHFNPFKKTHGAPTDEVRHVGDMGNVKTDENGVAKGSFKDSLIKLIGPTSVVGRSVVIHAGQDDLGKGDTEESLKTGNAGPRPACGVIGLTN | soluble
17 | GMASSGTEHDAMRARLVDVAQAIVEERGGAGLTLSELAARAGISQANLSRYFETREDLMEAIADYWFHPMVEIMEDVLASDLPPRRKMYEFFARRFVVMRRKWEADPVKLQTYIEVGNDYFEQVRSYIDLADHYLGEIIGEAMSDGAFSGLEVDETISLVNQMCAPYCALNTMTTFMERLSEDKLARIVDAVFDGLSAQDRGARSLTGLRAA | soluble
18 | MRRLLLLVILFGCMSVINLAAGCNAQICTCPGGGYVTYGQYCPVNTPSYSAPPDAPPVDMYYFILDIKNNSYQLVDLKTKNFLTALDRSLSCDRSTQVCTVVSIREYLAVVVSEDNRLFIGKADAFYKGTGKKAEKAAIDDCKKGKEANGNGVMGDGIKGKKCRLIRLFSPNFKLENIETKQKYDLKVTGSL | not soluble
19 | MRTIDDRIVHSLNTTVPTASFSGKVDATQTCKELYESLMEAHLSRDKAIKSCIKETSAVVSQLREERAKDSDNLSVIKQLRKEQTKLKLMQSELNVEEVVNDRSLKVFNERCRIHYTPPKIK | soluble
20 | TLKEMKYKRNQEEIETYYEYTLKIEAINNEMRKFRHDYVNILTTLSEYIREDDMIGLRAYFNKNIVPMKDNLQMNAIKLNGIENLKVREIKGLITAKILRAQEMNIPISIEIPDEVSSINLNMIDLSRSIGIILDNAIEASTEIDDPIIRVAFIESENSVTFIVMNKCADDIPRIHELFQESFSTKGEGRGLGLSTLKEIADNADNVLLDTIIENGFFIQKVEIINN | not soluble
21 | MGSDKIHHHHHHMGQTTFSRQKDGQPDTAYHDSETTYHYSETTYNYAYLDESTKGMIRRAILKAIAIPGHQVPFGSREMPMPYGWGTGGIQITASIIGPNDTLKVIDQGSDDTTNAVSIRAFFRKVTNVPTTEKTSEATLIQTRHRIPETPLKEDQILVFQVPIPEPLRFIEPRETETCKMHALEEYGVMQVKLYEDIARFGHIATTYAYPVKVNHRYVMDPSPIPKFDNPKMDMMPALQLFGAGREKRVYAVPPYTVVESLDFDDHPFTIQQWDKPCELCGARDSFLDEVVMDDDGTRMFVCSDTDYCQLRQSQGEKTS | not soluble
22 | MSLKWSAIPFQTLYRSIESGEFDFDLFKEVLPDLQNLNLNTDKLKNNASRSQLEKGEIELSDGSTFKVNQEFIFEAISLSDELNLDEIVACELILSGDTTANNGKVQYFLRRQYILQIVSFIVNCFHEDTELYQELIKNGALVSNILSAFKFIHTQLSEIKQQINKAQILENYNALFQQNIKFRRDFLLREYDILSQILYGLVDKGAIMKNKDFILSLLHHVSELDSNDFFIIYYTPAFFHLFASLRVLPDADVKLLHSQFMKDLKDDSIYTKPVKVALIFIFFAYFIGWCKEDPKRRADTMDFKTDVDEPMTSAVELGAIEQILIFAADTSIVEQDKSMELFYDIRSLLERHIPRLIPKQLLDDEKIFSQTTNSTYNPASATDNMSGRGLWNPSYPGMMSTTGTARLNSMPNNVNEYSYTTIVLSDQTQEFFLSSFDDVLQTIITDCAFLLTKIKDAEEDSLLSGEDLTLDDISLKADLERFFLSIYFFYASRPEYSCTFWSDKESNAYGFIEWCSRCNDNLMRSCFYLMVSSLSFGPENALNVYHYFGENSSISWKNIAQCLSDYTKKISNFNSSLHKRQQFSESTHNDIDSTAVALEEGLNEEAVIFLSSLLTLVGSVTYQVDEDVKSSLSKVFSDVLFEFTKINTPLVGAAFKVISNLVPKLESSRTKFWSFLDSLIFKDSSLNYSSESYRNAFTNVLTKYSDVLGFLQLFHNLISIHSRENNSEYMVFGKLAFPTRLGQGYRKVGIWPYFDYIFNDILAHVDQIVDIRNKRAVQLPILKIIYTGLCSFDYSVILNSIPAAANLDALVDCENFFNYVQECPAIPIFNYIFTEKIYKSIFNVVDVGVDQLSIELEGGKNQAELLQLAVKIINKVLDYQETYVEELFPIVKKHGKTDYFLPKNYSLHGLRSFYDAIFFNIPLVAHLGLYVGVDDQILATNSLRILAKLSERSNGSVASLSEGHHHHHH | soluble
23 | MMIENDETLNELHNDEEFCIKEQLSHVDHDEKVHVDSIVKKSECAHNYEQREKRDRSSSVDSKPEIKKICRCHESNCSKSSKYEKSSCGSKNKSGDSLSTASTGINECLNNSKNLNEPFKFFIGGIPQYITSKDTHELNGKRVDVREENNTTPSDIQRKIFVGGLNYYWTKDTLESYFSTFGEIDVVQIVLDSSGRSRCFGFVVFSNENSVAKVLKHKRHKIYDKMVEVRKAEPKKPKMSIKRSNNKNFSKFPPHIPFMAPFPPCNKETMAQWANFMYNTCGVPFLFNQRFQNLPDFYSNYNYYQNSLENIQQSEYNN | not soluble
